Test results: patent publication US20250388683A1 (VETOQUINOL, published 2025)
Like-named read-outs stand apart in the source and are kept apart here.

T1: human IL31RA protein (Acrobiosystem, Cat:ILA-H5256) (human, UniProt Q8NI17 20-519, limits assumed)
T1 construct: Bought; loaded on protein A sensor tips; also called hIL-31RA; hIL31R
T1 sequence (looked up): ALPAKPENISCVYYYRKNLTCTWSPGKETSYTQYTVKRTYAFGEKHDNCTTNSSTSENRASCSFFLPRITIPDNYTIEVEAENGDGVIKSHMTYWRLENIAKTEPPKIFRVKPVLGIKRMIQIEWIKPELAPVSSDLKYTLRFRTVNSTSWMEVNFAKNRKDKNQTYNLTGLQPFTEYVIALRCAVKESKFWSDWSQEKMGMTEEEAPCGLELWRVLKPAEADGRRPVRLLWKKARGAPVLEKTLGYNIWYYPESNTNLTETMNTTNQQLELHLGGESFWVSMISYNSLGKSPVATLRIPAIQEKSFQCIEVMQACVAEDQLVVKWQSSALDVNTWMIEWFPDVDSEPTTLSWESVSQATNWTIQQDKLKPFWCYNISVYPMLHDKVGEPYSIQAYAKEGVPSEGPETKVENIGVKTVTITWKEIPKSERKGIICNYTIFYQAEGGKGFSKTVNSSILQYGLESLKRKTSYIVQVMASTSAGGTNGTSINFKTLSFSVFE

T2: Recombinant extra cellular domain of canine IL-31 receptor A (cECD-IL-31RA), His-tagged (canine)
T2 construct: also called cIL-31RA; cIL31r
T2 chain: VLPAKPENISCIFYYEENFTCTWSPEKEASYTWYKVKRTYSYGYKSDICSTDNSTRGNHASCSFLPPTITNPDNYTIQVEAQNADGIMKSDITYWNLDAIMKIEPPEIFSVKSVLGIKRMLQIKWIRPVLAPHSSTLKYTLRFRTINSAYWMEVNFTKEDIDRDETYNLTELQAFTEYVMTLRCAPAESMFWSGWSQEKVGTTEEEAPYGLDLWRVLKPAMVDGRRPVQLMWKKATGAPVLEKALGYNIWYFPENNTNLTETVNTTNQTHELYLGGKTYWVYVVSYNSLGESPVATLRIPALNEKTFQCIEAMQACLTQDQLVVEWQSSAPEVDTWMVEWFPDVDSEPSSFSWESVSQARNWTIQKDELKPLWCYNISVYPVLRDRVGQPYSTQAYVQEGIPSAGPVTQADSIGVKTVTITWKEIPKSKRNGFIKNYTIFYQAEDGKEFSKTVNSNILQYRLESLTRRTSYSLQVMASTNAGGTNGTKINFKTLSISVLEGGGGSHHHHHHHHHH

B1: 8D3-VHL/8D3-VLH caninized antibody (VTQ2101) (antibody, V domains shown)
VH: EVTLQESGPGLVKPSQTLSLTCVASGFSIKSSFIHWLRQRPGRGLEWIGRIDPAFGATEYNPAFQGRFSITADTAKNQASLQLSSMTTEDSAVYYCARYHYAASHFDAWGQGTLVTVSS
VL: RIVMTQSPGSLAGSVGESVSINCKSSQSVTNDLTWYQQKPGEAPKVLITYASQRYTGVPARFSGSGYGTDFTLTINNLQAEDVGDYFCQQDYASPFTFGQGTKLEIK
B2: 8D3 chimeric canine IgGB antibody (antibody, V domains shown)
VH: EVQLQQSGAELVKPGASVKLSCTASGFNIKDSFIHWLKQRPEQGLEWIGRIDPANGNTEYDPNFQGKDTITADTSSNTAYLQVSSLTSEDTAVYYCARYYYGNSHFDCWGQGTTLTVSS
VL: RIVMNQTPKFLPISAGDRVIITCKASQSVTNDVTWYQQKPGQSPKVLIHYASNRYTGVPDRFTGSGYGTDFTFTISTVQAEDLAVYFCQQDYSSPFTFGSGTKLEIK
notes: also called chimeric 8D3

Key:
[1] = biological target: T3, canine IL-31RA expressed on HEK-Blue STAT3 canine IL-31R reporter cells (with canine OSMR) (canine); test: cell-based or functional assay
[2] = biological target: T3, canine IL-31RA expressed on HEK-Blue …; test: cell-based or functional assay; remark: listed apart in the source
[3] = biological target: T3, canine IL-31RA expressed on HEK-Blue …; test: cell-based or functional assay; remark: listed apart in the source
[4] = biological target: T3, canine IL-31RA expressed on HEK-Blue …; test: cell-based or functional assay; remark: listed apart in the source
[5] = biological target: T3, canine IL-31RA expressed on HEK-Blue …; test: cell-based or functional assay; remark: listed apart in the source
[6] = biological target: T3, canine IL-31RA expressed on HEK-Blue …; test: cell-based or functional assay; remark: listed apart in the source
[7] = biological target: T3, canine IL-31RA expressed on HEK-Blue …; test: cell-based or functional assay; remark: listed apart in the source
[8] = biological target: T3, canine IL-31RA expressed on HEK-Blue …; test: cell-based or functional assay; remark: listed apart in the source
[9] = biological target: T3, canine IL-31RA expressed on HEK-Blue …; test: cell-based or functional assay; remark: listed apart in the source
[10] = biological target: T3, canine IL-31RA expressed on HEK-Blue …; test: cell-based or functional assay; remark: listed apart in the source
[11] = biological target: T3, canine IL-31RA expressed on HEK-Blue …; test: cell-based or functional assay; remark: listed apart in the source
[12] = biological target: T3, canine IL-31RA expressed on HEK-Blue …; test: cell-based or functional assay; remark: listed apart in the source
[13] = biological target: T3, canine IL-31RA expressed on HEK-Blue …; test: cell-based or functional assay; remark: listed apart in the source
[14] = biological target: T1, human IL31RA protein (Acrobiosystem, …); test: Octet K2 BLI, receptor loaded on protein A tips, antibody in solution
Procedure: (§1) Binding of the purified antibodies to cECD-IL-31RA was analyzed using the Octet system (BLI technology, Fortebio). Octet K2 instrument was used to measure the binding kinetics of either canine IL-31RA (cIL-31RA) or human IL31RA (hIL-31RA) to 8DE and 3F1 antibodies. cIL-31RA (see example 1) or hIL31R proteins (Acrobiosystem, Cat:ILA-H5256) were attached to the surface of the protein A (fortéBio, Part No: 18-5013) sensor tip (5 ug/ml, 200 ul, 120 sec). […] Then, the antibodies were allowed to dissociate for 600 seconds. All the dilutions were made in PBS-Tween (0.05%) solution. The measurement was corrected for baseline drift by subtracting a control sensor exposed to running buffer (PBS-Tween, 0.05%) only. Data analysis and curve fitting were carried out using the own software (local fitting, 1:1 Langmuir model) of the device.

[15] = biological target: T2, Recombinant extra cellular domain of …; test: Octet K2 BLI, cIL-31RA loaded on protein A tips, antibody at 15.6, 3.91, 0.98 nM, 1:1 Langmuir local fit
Procedure: as §1

Binder	IC50 (read off the curve); STAT3-SEAP reporter, canine IL-31 stimulation [1] [nM]	IC50 (read off the curve); STAT3-SEAP reporter, canine IL-31 stimulation [2] [nM]	IC50 ratio (IC50 candidate/IC50 VTQ2101) [3] [ratio]	Mean IC50 (nM) (n = 3), HEK-Blue cell-based SEAP assay [4]	IC50 (read off the curve); STAT3-SEAP reporter, canine IL-31 stimulation [5] [nM]	IC50 (read off the curve); STAT3-SEAP reporter, canine IL-31 stimulation [6] [nM]	IC50 ratio (IC50 candidate/IC50 VTQ2101) [7] [ratio]	IC50 (read off the curve); STAT3-SEAP reporter, canine IL-31 stimulation [8] [nM]	IC50 (read off the curve); STAT3-SEAP reporter, canine IL-31 stimulation [9] [nM]	IC50 ratio (IC50 candidate/IC50 VTQ2101) [10] [ratio]	IC50 (read off the curve); STAT3-SEAP reporter, canine IL-31 stimulation [11] [nM]	IC50 (read off the curve); STAT3-SEAP reporter, canine IL-31 stimulation [12] [nM]	IC50 (read off the curve); STAT3-SEAP reporter, canine IL-31 stimulation [13] [nM]	binding result [14]	Kd [15] [nM]
B1	~0.05	~1	1	0.33	~0.3	~0.6	1	~1	~0.6	1	~0.6	~0.6	–	–	–
B2	–	–	–	0.43	–	–	–	–	–	–	–	–	~0.5	no binding	< 0.001
